From PMC11764028 (Bioactive Materials, 2025)

Biological target: the molecule itself
Assay: SEC + native gel or EMSA

B1: dual-functional fusion protein KFS (KALA peptide - human ferritin light chain - SIINFEKL) (other)
chain: WEAKLAKALAKALAKHLAKALAKALKAIRQNYSTDVEAAVNSLVNLYLQASYTYLSLGFYFDRDDVALEGVSHFFRELAEEKREGYERLLKMQNQRGGRALFQDIKKPAEDEWGKTPDAMKAAMALEKKLNQALLDLHALGSARTDPHLCDFLETHFLDEEVKLIKKMGDHLTNLHRGGGGSGGGGSGGGGSSIINFEKL
With B1 the “stoichiometry N” value was 40.
